Source: patent US20110207116A1 (University of California, published 2011)

T1: PhyB(1-450)-10aaLinker-mCherry-Kras4BCT (Arabidopsis thaliana, UniProt P14713 1-450, phycocyanobilin (PCB) chromophore covalently bound; C-terminal CaaX prenylation sequence)
T1 construct: Expressed in NIH3T3 cells at the plasma membrane; also called pAL161; PhyB-CBD; not shown: mCherry fluorescent protein, amplified from a vector
T1 sequence: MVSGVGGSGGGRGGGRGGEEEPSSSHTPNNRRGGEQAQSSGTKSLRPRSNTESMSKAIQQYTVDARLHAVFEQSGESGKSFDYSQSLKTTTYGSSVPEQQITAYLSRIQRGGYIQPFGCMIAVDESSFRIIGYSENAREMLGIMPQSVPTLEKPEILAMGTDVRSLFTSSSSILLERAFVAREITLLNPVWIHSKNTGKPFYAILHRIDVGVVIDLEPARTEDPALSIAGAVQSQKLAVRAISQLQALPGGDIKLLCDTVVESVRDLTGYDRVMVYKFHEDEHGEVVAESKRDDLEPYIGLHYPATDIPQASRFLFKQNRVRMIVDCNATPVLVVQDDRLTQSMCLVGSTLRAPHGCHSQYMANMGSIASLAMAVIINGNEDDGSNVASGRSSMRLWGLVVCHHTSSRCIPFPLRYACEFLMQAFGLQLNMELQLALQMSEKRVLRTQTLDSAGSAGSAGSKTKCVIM

T2: PhyB(1-650)-10aaLinker-mCherry-Kras4BCT (Arabidopsis thaliana, UniProt P14713 1-650, phycocyanobilin (PCB) chromophore covalently bound; C-terminal CaaX prenylation sequence)
T2 construct: Expressed in NIH3T3 cells at the plasma membrane; also called pAL117; PhyB-NT; not shown: mCherry fluorescent protein, amplified from a vector
T2 sequence: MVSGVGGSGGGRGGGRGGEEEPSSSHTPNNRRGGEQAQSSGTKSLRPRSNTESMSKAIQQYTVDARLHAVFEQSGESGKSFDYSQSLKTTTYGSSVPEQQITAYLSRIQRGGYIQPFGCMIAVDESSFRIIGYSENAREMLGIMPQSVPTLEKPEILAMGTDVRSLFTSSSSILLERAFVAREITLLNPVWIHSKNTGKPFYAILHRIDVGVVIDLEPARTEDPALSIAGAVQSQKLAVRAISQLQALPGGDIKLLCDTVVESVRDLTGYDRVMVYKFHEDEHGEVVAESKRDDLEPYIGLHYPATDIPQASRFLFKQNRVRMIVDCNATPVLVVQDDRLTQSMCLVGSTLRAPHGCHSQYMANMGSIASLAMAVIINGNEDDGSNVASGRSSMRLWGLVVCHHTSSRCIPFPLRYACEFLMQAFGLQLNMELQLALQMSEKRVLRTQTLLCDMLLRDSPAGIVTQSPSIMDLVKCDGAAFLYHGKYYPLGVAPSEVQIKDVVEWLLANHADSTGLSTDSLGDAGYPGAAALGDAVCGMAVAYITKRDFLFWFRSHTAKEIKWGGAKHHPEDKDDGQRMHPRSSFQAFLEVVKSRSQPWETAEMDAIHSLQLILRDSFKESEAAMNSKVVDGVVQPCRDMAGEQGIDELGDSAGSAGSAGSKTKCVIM

T3: PhyBFL-10aaLinker-mCherry-Kras4BCT (Arabidopsis thaliana, UniProt P14713 1-1172, phycocyanobilin (PCB) chromophore covalently bound; C-terminal CaaX prenylation sequence)
T3 construct: also called pAL162; PhyB full length; not shown: mCherry fluorescent protein, amplified from a vector
T3 sequence: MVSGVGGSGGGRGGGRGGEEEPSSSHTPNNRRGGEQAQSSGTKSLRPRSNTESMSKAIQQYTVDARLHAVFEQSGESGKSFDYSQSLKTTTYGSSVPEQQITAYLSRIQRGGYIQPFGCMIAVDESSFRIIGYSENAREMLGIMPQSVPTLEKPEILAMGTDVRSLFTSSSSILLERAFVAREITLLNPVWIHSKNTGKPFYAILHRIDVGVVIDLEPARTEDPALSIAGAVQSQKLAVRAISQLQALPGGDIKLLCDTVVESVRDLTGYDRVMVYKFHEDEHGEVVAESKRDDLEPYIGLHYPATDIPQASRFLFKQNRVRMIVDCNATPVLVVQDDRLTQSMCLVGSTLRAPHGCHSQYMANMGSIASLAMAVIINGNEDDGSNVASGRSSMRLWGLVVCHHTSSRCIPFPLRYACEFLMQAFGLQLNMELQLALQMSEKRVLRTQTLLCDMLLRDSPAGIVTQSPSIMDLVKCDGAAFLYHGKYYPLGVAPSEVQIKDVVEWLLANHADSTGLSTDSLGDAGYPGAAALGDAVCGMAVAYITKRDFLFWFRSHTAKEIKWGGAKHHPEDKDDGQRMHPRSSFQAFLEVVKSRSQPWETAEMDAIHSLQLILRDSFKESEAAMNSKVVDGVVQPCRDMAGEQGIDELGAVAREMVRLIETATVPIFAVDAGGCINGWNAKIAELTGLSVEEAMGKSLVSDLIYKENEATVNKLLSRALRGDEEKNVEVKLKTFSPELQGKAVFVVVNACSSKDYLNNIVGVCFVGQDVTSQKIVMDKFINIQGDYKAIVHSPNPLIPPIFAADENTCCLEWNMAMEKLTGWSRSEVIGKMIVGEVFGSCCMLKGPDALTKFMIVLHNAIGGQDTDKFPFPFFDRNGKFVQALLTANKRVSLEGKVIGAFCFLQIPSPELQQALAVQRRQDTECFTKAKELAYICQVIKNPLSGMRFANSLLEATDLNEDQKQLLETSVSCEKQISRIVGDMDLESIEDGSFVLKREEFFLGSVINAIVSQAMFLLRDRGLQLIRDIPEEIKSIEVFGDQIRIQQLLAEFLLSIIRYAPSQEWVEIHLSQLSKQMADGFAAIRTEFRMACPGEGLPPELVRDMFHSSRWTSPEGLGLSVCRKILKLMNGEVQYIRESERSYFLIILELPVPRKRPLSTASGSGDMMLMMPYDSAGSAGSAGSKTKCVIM

B1: PhyB(1-908)-10aaLinker-mCherry-Kras4BCT (other)
chain: MVSGVGGSGGGRGGGRGGEEEPSSSHTPNNRRGGEQAQSSGTKSLRPRSNTESMSKAIQQYTVDARLHAVFEQSGESGKSFDYSQSLKTTTYGSSVPEQQITAYLSRIQRGGYIQPFGCMIAVDESSFRIIGYSENAREMLGIMPQSVPTLEKPEILAMGTDVRSLFTSSSSILLERAFVAREITLLNPVWIHSKNTGKPFYAILHRIDVGVVIDLEPARTEDPALSIAGAVQSQKLAVRAISQLQALPGGDIKLLCDTVVESVRDLTGYDRVMVYKFHEDEHGEVVAESKRDDLEPYIGLHYPATDIPQASRFLFKQNRVRMIVDCNATPVLVVQDDRLTQSMCLVGSTLRAPHGCHSQYMANMGSIASLAMAVIINGNEDDGSNVASGRSSMRLWGLVVCHHTSSRCIPFPLRYACEFLMQAFGLQLNMELQLALQMSEKRVLRTQTLLCDMLLRDSPAGIVTQSPSIMDLVKCDGAAFLYHGKYYPLGVAPSEVQIKDVVEWLLANHADSTGLSTDSLGDAGYPGAAALGDAVCGMAVAYITKRDFLFWFRSHTAKEIKWGGAKHHPEDKDDGQRMHPRSSFQAFLEVVKSRSQPWETAEMDAIHSLQLILRDSFKESEAAMNSKVVDGVVQPCRDMAGEQGIDELGAVAREMVRLIETATVPIFAVDAGGCINGWNAKIAELTGLSVEEAMGKSLVSDLIYKENEATVNKLLSRALRGDEEKNVEVKLKTFSPELQGKAVFVVVNACSSKDYLNNIVGVCFVGQDVTSQKIVMDKFINIQGDYKAIVHSPNPLIPPIFAADENTCCLEWNMAMEKLTGWSRSEVIGKMIVGEVFGSCCMLKGPDALTKFMIVLHNAIGGQDTDKFPFPFFDRNGKFVQALLTANKRVSLEGKVIGAFCFLQIPSDSAGSAGSAGSKTKCVIM
modifications: phycocyanobilin (PCB) chromophore covalently bound; C-terminal CaaX prenylation sequence
notes: Expressed in NIH3T3 cells, localized to the plasma membrane; also called pAL149; PhyB908; not shown: mCherry fluorescent protein, amplified from a vector

Assays:
[1] = target: T1, PhyB(1-450)-10aaLinker-mCherry-Kras4BCT; test: YFP membrane translocation in NIH3T3 cells, confocal microscopy
[2] = target: B1; test: as above
[3] = target: T2, PhyB(1-650)-10aaLinker-mCherry-Kras4BCT; test: as above
[4] = target: T4, PhyB(1-650)-Gal4DD-10aaLinker-mCherry-Kras4BCT (Arabidopsis thaliana; Saccharomyces …, UniProt P04386 50-106, phycocyanobilin (PCB) chromophore covalently bound; C-terminal CaaX prenylation sequence); test: as above
T4 construct: also called pAL148; not shown: mCherry fluorescent protein, amplified from a vector

[5] = target: T3, PhyBFL-10aaLinker-mCherry-Kras4BCT; test: as above
[6] = target: T5, PIF6APB-mYFP-20aaLinker-Rac1(Q61L)ΔCT (Arabidopsis thaliana, UniProt P63000 1-188); test: global light-activated membrane translocation in NIH3T3 cells, red light
T5 construct: also called pAL105; Rac1(Q61L, no caax); not shown: mYFP: EYFP with monomerizing A206K mutation

Row | binding result [1] | binding result [2] | binding result [3] | binding result [4] | binding result [5] | binding result [6] | Binder
1 | no binding | no binding | no binding | no binding | no binding | – | PIF3APB-mYFP (other, also called pAL100; PIF3-100NT; not shown: mYFP: EYFP with monomerizing A206K mutation) MPLFELFRLTKAKLESAQDRNPSPPVDEVVELVWENGQISTQSQSSRSRNIPPPQANSSRAREIGNGSKTTMVDEIPMSVPSLMTGLSQDDDFVPWLNHH
2 | – | – | – | – | – | binds | B1
